Measured values from article PMC5314766.

T1: Rrp6 EARless, catalytically dead (Saccharomyces cerevisiae, UniProt Q12149 128-733, D238N;del517-617)
T1 sequence: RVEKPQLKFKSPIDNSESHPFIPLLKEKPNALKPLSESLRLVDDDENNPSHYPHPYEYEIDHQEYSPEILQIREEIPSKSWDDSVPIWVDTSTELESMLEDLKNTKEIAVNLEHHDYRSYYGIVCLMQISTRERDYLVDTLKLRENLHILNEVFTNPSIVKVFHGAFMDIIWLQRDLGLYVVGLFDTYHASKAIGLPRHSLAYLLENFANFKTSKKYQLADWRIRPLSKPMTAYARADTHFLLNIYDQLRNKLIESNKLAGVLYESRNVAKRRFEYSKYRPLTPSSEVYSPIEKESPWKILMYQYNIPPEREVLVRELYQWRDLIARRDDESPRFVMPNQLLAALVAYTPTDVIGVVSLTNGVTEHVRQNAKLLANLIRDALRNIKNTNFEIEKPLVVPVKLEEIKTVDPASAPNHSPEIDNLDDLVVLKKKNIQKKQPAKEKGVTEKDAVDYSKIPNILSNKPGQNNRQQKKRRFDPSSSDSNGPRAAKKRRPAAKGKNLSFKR

T2: Rrp6 Lasso (CTD intact), catalytically dead (Saccharomyces cerevisiae, UniProt Q12149 128-733, D238N)
T2 sequence: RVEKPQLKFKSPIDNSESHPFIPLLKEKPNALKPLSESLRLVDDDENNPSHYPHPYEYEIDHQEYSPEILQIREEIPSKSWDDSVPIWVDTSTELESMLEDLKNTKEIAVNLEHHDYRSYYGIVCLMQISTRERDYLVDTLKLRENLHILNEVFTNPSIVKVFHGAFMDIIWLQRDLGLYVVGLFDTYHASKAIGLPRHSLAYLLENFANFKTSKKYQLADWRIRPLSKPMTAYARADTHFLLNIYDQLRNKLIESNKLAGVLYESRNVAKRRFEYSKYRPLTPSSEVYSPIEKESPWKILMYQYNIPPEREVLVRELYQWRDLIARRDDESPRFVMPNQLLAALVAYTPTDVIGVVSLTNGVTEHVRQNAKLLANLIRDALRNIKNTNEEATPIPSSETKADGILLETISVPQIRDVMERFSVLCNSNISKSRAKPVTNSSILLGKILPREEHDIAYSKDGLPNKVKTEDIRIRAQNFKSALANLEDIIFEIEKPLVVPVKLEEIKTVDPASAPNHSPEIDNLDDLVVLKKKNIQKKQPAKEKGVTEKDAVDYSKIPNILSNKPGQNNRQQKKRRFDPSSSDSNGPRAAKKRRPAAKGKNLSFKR

T3: Rrp6 Lassoless, catalytically dead (Saccharomyces cerevisiae, UniProt Q12149 128-634, D238N)
T3 sequence: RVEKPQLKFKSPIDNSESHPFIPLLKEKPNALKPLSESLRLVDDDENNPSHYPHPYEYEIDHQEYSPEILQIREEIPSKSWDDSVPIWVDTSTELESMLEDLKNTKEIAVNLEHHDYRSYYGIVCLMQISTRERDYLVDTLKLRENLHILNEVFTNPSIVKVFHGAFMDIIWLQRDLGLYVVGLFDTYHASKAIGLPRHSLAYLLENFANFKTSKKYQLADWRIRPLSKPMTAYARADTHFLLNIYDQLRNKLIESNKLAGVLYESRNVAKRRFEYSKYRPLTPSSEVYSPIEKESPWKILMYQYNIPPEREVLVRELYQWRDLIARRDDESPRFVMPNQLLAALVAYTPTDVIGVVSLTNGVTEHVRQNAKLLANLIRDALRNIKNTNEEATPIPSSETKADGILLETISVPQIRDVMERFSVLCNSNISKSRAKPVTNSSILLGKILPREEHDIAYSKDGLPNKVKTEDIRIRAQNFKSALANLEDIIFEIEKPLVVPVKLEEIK


Columns and labels:
Assay in all cases: fluorescence polarization
[1] = biological target: Exo11(44exo-/6exo-) Lassoless (Saccharomyces cerevisiae, UniProt Q12149;Q08162;P46948;Q12277;P25359;Q05636;P53256;P48240;P38792;Q08285;P53859 …, D238N;D551N)
[2] = biological target: T1, Rrp6 EARless, catalytically dead
[3] = biological target: T2, Rrp6 Lasso (CTD intact), catalytically …
[4] = biological target: T3, Rrp6 Lassoless, catalytically dead
[5] = biological target: Exo10(6exo-) Partial lasso (Saccharomyces cerevisiae, UniProt Q12149;P46948;Q12277;P25359;Q05636;P53256;P48240;P38792;Q08285;P53859 …, D238N)
Exo10(6exo-) Lassoless = Exo10(6exo-) Lassoless (Saccharomyces cerevisiae, UniProt Q12149;P46948;Q12277;P25359;Q05636;P53256;P48240;P38792;Q08285;P53859 …, D238N)
Exo10(6exo-) Lasso = Exo10(6exo-) Lasso (Saccharomyces cerevisiae, UniProt Q12149;P46948;Q12277;P25359;Q05636;P53256;P48240;P38792;Q08285;P53859 …, D238N)

Binder | binding signal [1] | binding signal [2] | binding signal [3] | binding signal [4] | binding signal [5] | binding signal (Exo10(6exo-) Lassoless) | binding result (Exo10(6exo-) Lasso)
AAAAAAAAAAAAAAAAAAAAAAAAAAAAAAAAAAAAA (ssRNA) [37 nt polyA RNA] | 6 fold weaker than P9 | 6 fold tighter than lassoless (P4) | 4 fold tighter than lassoless (P4) | 4 fold weaker than lasso-containing (P3) | > 15 fold weaker than P6 | > 15 fold weaker than P6 | –
AUUAUUUAUUUAUUAUUAUUUAUU (ssRNA) [AU-rich RNA 24 nt] | – | – | – | – | – | – | binds
